The nature of this series: soluble on expression in E. coli; label from the status in PepcDB or PDB records.
Regarding “MAKWGEGDPRWIVEERADATNVNNWHWTERDASNWSTEKLKTLFLAVRVENEEGKCEVTEVNKLDGEASINNRKGKLIFFYEWTIKLNWTGTSKSGVQYKGHVEIPNLSDENSVDEVEISVSLAKDEPDTNLVALMKEDGVKLLREAVGIYISTLKTEFTQGMILPTVNGESVDPVGQPALKTETCKAKSAPSKSQAKPVGVKIPTCKITLKETFLTSPEELYRVFTTQELVQAFTHAPAALEADRGGKFHMVDGNVTGEFTDLVPEKHIAMKWRFKSWPEGHFATITLTFIDKNGETELCMEGRGIPAPEEERTRQGWQRYYFEGIKQTFGYGARLF”, the “soluble on expression in E. coli” value was “soluble”.

With “SFTMAQQSGGGLTRGSFPEGFVFGTASAAYQYEGAVKEDGRGQTIWDTFAHTFGKITDFSNADVAVDQYHRFEEDIQLMADMGMDAYRFSIAWSRIYPNGVGQVNQAGIDHYNKLIDALLAKGIQPYVTLYHWDLPQALEDKYKGWLDRQIVDDFAAYAETCFREFGDRVKHWITLNEPHTVAIQGYDAGLQAPGRCSVLLHLYCKAGNSGTEPYVVAHHFILAHAAAASIYRTKYKATQNGQLGIAFDVMWFEPMSNTTIDIEAAKRAQEFQLGWFADPFFFGDYPATMRARVGERLPRFTADEAAVVKGALDFVGINHYTTYYTRHNNTNIIGTLLNNTLADTGTVSLPFKNGKPIGDRANSIWLYIVPRGMRSLMNYVKERYNSPPVYITENGMDDSNNPFISIKDALKDSKRIKYHNDYLTNLAASIKEDGCDVRGYFAWSLLDNWEWAAGYSSRFGLYFVDYKDNLKRYPKNSVQWFKALLKT”, the “soluble on expression in E. coli” value is “soluble”.

“MSLTNLPEDRTGEEIRDAIKIDGEAVRGHLDELVRSTVEETLNQMLDAEADQICKAKRYERSPDRVDSRAGSYSRKLQTKAGEVSLKVPQLRSLPLETQIIERYKRRESSVEEALVEMYLAGVSVRRVEDITEALWGTRVSSSTVSELNQKIYERIDVWRNRPLEGEHPYVMLDGIWLKRSWGGEVKNIAVLVAVGVRSDGHREILSVAEGTKEDSESWRTFLRHLKERGLQGVRLITSDKCLGLVEALGEFFPEAAWQRCIVHFYRNVLKDVPRSKSRDVAAMLKAVHAQEDRTAATEKAEQVAEKLASLRLGNAAKCFRAGVQETLAYMNFPREHWTRLRSNNMLERIMKEIRRRTRVVGAFPDGQSALMLVAARLRHIAGTHWGTRRYLDMDRLHEPEEREDHEGHHHHHH”: the “soluble on expression in E. coli” value was “soluble”.

Consider “MGSDKIHHHHHHMSTVDPVEQLLANGLKNLWYPICPVGFIEDKPVSLRRLGYKLAVWRDTDGTLHALEDHCPHRGAPLSRGVNLGDRLQCPYHGVEVRCDGVTARVPGSPGCKLEGSQATRFFHITEAAGAVWLYNSAGNVEEAPPLVLPEQLTDPEFSHFLCYTEWRGDYRYVLDNVMDPMHGTYLHKQSHSMSEGESQARFVTRDTDTGFIFEKDGQRGVNFDWTEWADTGMHWMRLEIPYPKTGGPGGNFHIVGSYTPIARDLCAVFHWRCRPLTGWQRDTWRFLYRNRLEARHWAVLEQDREMLEFMEPDANQRENLYQHDLGLVRLRRHLKNLAKAQLELIEARQL”, for which the “soluble on expression in E. coli” value is “not soluble”.

“DIELTQSPPSLPVSLGDQVSISCRSSQSLVSNNRRNYLHWYLQKPGQSPKLVIYKVSNRFSGVPDRFSGSGSGTDFTLKISRVAAEDLGLYFCSQSSHVPLTFGSGTKLEIKR”: the “soluble on expression in E. coli” value is given as “soluble”.

With “MAHHHHHHMTAAADFALPDLVLFLRLYDSANVEDGQLLVQVMNEIHRQLFALAETAADAAVARGGSSTPSMAGTTIGEHDLDAANRGVKGISPAPSASPLPLPAMLYTMSSLGIVEEAVLDVVTSSAVQDGARGRRGLLYSQLRLYSVADLLQLLVALHRFGHQQQPSTKAVTMALRASLYRTSTTASRFHRRARSLKRALAARPQTPSSGEGRADAAAADADTGGVAAVIAADEELSSLAFGLGCPLFLLLEALTATATTVHRRTDVVAFLSDLIAVTAVAELTTAVHESRGRRSPAGCEDLAREAQEFVFAVSHQLLRAAKLTECMELPQILLSDVFAWSTTLSGRGVFVDGGEDNAVPSDRVAYYDHVTADLIKANSAE”, the “soluble on expression in E. coli” value was “not soluble”.

With “MKRSAINDILGHTRQFFSQHDVHLPPFASFSPAQWQQLDTAAWEEVFDLKLGWDVTAFGRNNFAAHGLTLFTLRNGSAKGMPYVKCYAEKIMHVRDAQVTPMHFHWRKREDIINRGGGNLIVELWNADSNEQTADSDITVVIDGCRQKHTAGSQLRLSPGESICLPPGLYHSFWAEAGFGDVLVGEVSSVNDDDHDNHFLQPLDRYNLIDEDEPAQLVLCNEYRQFR”, the “soluble on expression in E. coli” value was “soluble”.

As for “MPIIYYDGNCVYCYNYAIWLIQHGLSTRYQFAKLQGDVAQNLLENYPEAQQYDSVILQEGDQLKYKSDAITTLITSLTNYKWLGILLRFVPNIIRDFGYQLFADNRNHMWKTHWHEPNDYEKSFFIDLEHHHHHH”, the “soluble on expression in E. coli” value is reported as “not soluble”.

For “MGHHHHHHSHMLVDNLYRVVSNQKDAAVIRVHLEVNASHEIFKGHFPEVPVLPGVCMVQCIKELIEESLLVKTQIDKGDMIKFLSMLNPVESNSIQAEISIKEKTETRIVFQATLKNEDRFLLKYSGSLVVLN”, the “soluble on expression in E. coli” value is on record as “not soluble”.

As to “MFPERLRALRRGQKMTLAQLAAALNQMPTADKTTRQNTAAQIGNWERDLRTPSYLEVRKLAEFFNVTTDYLSGKSDQEEYDLGRIFLSGKPLTFNQEQLSSEDRYELFQLMDGYLHGRQHRVSTDATGQEELDLHFDD”, the “soluble on expression in E. coli” value was “not soluble”.

Regarding “MTPWLTVVGIGEDGFSGLGKQARRALLGAGRVFGSPRQLALLPRCVTAEQLAWPSPFSLAPVLALRGEPVCVLASGDPMFYGVGASLARQVPAAEMRVLSLPSSCALAAARLGWPLQDLQVVSLVARPLAALNAHLHSGMRLLVLSNDGDSPAAIAAQLRGQGFGPSRLQVFEHLGGVDERALAGTAQDWPHTGIAALNLVAIECLATPDAPRLHRLAGLPDAAYRHDGQLTKRDVRAITLARLAPQPGELLWDVGAGCGSIGIEWMRAHPACRALAIEADEGRQGLIEHNRDALGVPGLQLVRGKAPAALQGLEQPDAIFIGGGVTRTGVLDLCWASLRPGGRLVANAVTLQSELALAHFREQHGGELTRIHVAHAQPLGAFDTWRQALPITLLEVLKPADA”, the “soluble on expression in E. coli” value is recorded as “not soluble”.

Regarding “MGSDKIHHHHHHACDGKVYKKGDKIMFGVPKVSGYLFVRTFTKDGKISTMPKENLASQEAVIVDIPDYDKKLFEGMGVYSEVETHPLVVVELDGRRLCININDALSQGNIVSEYFKSEVEGMVDLTSDLLFVYALKLNNVTVDDDVIVRYMAHCDKNLVEKNQADPFTMADLKKEYAAKLEKALGDVDFSKVFRIESQSEMLQYDMDKQIFPLKGLWCPQIKTDQPDALAKIGFCKWDDCVFRFVNIPEFMNVPCETARAKGFYDMRKVGKVPTYNTPLATSYTYIRFLDKKVQLPEKKNKVYHNGDIKSMSLADLYGKMAIEAQIIKMDVYHLPFLKISDFELFYNYLGSIEVK”, the “soluble on expression in E. coli” value is “not soluble”.

Regarding “MNYLERLVESWPVEQCSAAVVTSDEVTTAGDGNIRYELASVTKLLSTYAVLIAVEEGAFALDTPCGPEGATVRHLLAHASGVGFRSTDACKAPEQRRIYSSYGFELLADVIAHEADMPFAQYLDEAVCQPIGMTHTQLWGSAGHESYSTVNDLVLFAREILQPSLIAQETLVQACTVQFPELHGIVPGYGMYKPCPWGLGFEIKGEKNPHWTAAVMPHTTVGHFGQAGTYLWVDRESQRAMVALTNRSFGDWAKPLWAETNAGVWEHLDQLNL”, the “soluble on expression in E. coli” value is “not soluble”.

On to “MEKQYRVLLYYKYVPIEDPEAFREQHLAFCKELGLLGRILVSSEGINGTVSGTVEQTEKYMETMKADPRFADMVFKIDEAEGHAFKKIFVRHKKELVTLRLEDDVDPNETTGQHLKPAEFYEKMQDPNTIVIDARNDYEYDLGHFRGAVRPDIEAFRELPEWIEEHKDMLEGKKILTYCTGGVRCEKFSGWLVKQGFEDVAQLDGGIVTYGKDPEVQGKLWDGQCYVFDERISVPVNRVEHVIVGKDYFTGEPCERYVNCANPSCNKKMICTPENEYKYMRSCSHECRTNPRNLYVKEHNMTEEEVNARLAAIETEDHAAAE”, for which the “soluble on expression in E. coli” value is listed as “not soluble”.

Take “MGSDKIHHHHHHMRLPPLNALRAFEAAARHNGYIAAAEELCVTRGAVSRHIKLLEDHLGVTLFHRNHRGVELTAAGRQLLPVLTETFARIAREAEQISAMTRDVRIICPPALSIRWLFPRLEEFQAAHPDIRVRLTTEFYGAKGFDDTEHDLGVSVEHVSGRGAGIASMPLFPMVLSPACSPALLRQRPLSAPADLARMTLLHESPQRRDWAHWLSSFGVRGVDAGSGPTFPNLDMAARAATMGAGVVMADLALCQEELRAGTLVLPFPEMTCTTPQGGYVLLGARARWDEPHLRAFRDWAASSSADLVACMGA”: the “soluble on expression in E. coli” value is on record as “not soluble”.

With “MQHECNTDYTIAKYIPYIKPKYVTQEGTTVLYVRYNYNRNKRTLISTGYNIKPEHWDAKRKWIKRACPHYEEIDACLIKITSKLGDILTYAKVNGIDPTVDFVLLELEKNREYDLRPNRVDMFDALERYIVEKAPSVSADQIKDYRTLRKHLTAFKEYSSQPVTFRNLNLTFYNEFMDYLFHKVVKPNGTVGLLTNSAGKIIRLLKGFVNYQIVKGIIPPIDLKNFKVVEEETDAIYLNEKELAAIYELDLSDDKQLEEIRDVFITGCFTGLRYSDLSTLSPEHIDLDNENINLKQRKVHKAVVIPMIDYVPEILKKYNYDLPKIPRYMFNERVKELGRKIKLSQKIEVVRRKGKEREKRVYEKWEMISSHTCRRSFCTNMYLSGFPAAELMRISGHKSPSAFMRYIKVDNQQAAKRLKELRAKLAR”, the “soluble on expression in E. coli” value was “not soluble”.

As to “MGSDKIHHHHHHMPLPIRDLYTFFVVARAGAMQAAAHELGVTPGAISQRIRSIEDRYGKRLFVRSRDGVSLTASGKALWKEVKSAFAQIETSHNRHIGKDGKTILRISAAPTFAHSFLVSNLASFNEDHPGIRFNIETEDRLADLRSEPIDLAIRHGLGDYAGLRSEWLCAPELIVVGSPALLESQHPVKEPEDCLRFTLLPDETGLDWALWFEAHRVNAVAPSYGTAFKDGFLTVKAASRGQGLALINDIYVREELADGRLVQLLPGSWPTKFAYYAVALPETFDRPAVKAFVKWLCAACAVEQMHQK”, the “soluble on expression in E. coli” value was “not soluble”.

Regarding “MSLSWRLQTGSEKAELQELNARLYDYVCRVRELERENLLLEEELRSRLSREDRWAEDQALYAEEARSLRQQLDELNWSTALAEGERDALRRELLELQREGVEAGTARSRLDAELGAQRRELEEALGARAALEALLGRLETERRDLDAAHERQVRDLRARAASLTMHFRARATSPAAPPPRLRDVHDSYALLVAESWRESVQLYEDEVRELEQALRRGQESRLQAEDEARLCAQEADALRNQALELEQLRARLEDELLRMREEYGMQAEERQRVIDSLEDEKEALTLAMADRLRDYQELLQVKTGLSLEVATYRALLEGESNPEILIWTENIENVPQEPRNTSYRYTNSVLQRKNEKNLFPRREGHHHHHH”, the “soluble on expression in E. coli” value is given as “not soluble”.

With “MSLRSRDITLTGTYLPNTPVTLVVDGVAQVQGMTDSAGRFRLTGTLEPGRNRVYVMGEGPLASREYAVRYLPPYTDMAGHWAEAVVDALHERGVVSLYPLPRFEPEAQVTRMEFAVMVARALRLPAAEEQAPFTDVAVMPQWALLEVAAAVKAGIIKGMPDGSFAPDRLVTRAEMAAMLTRALAWAGLEVKPEAPEFADQAEIPDWAVEPVAAAVRHGLIKGYPDGTFRPGSPTTRAEAATMVHRLLQTVIGLNPEGHHHHHH”, the “soluble on expression in E. coli” value was “soluble”.

“MTTEIKKLDPDTAIDIAYDIFLEMAGENLDPADILLFNLQFEERGGVEFVETADDWEEEIGVLIDPEEYAEVWVGLVNEQDEMDDVFAKFLISHREEDREFHVIWKK”: the “soluble on expression in E. coli” value is recorded as “soluble”.

For the origin of these results see the DeepSol protein solubility set.
